The supplement of paper PMC10899765

Columns and labels:
Conditions in all cases: 20 nM; 72 h
[1] = tested on: MCF10A; assay: percent viability (nuclei count relative to siNT); higher = more viable cells
Experimental: (§1)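 After 72 h, cells were fixed and stained with Hoechst and anti-fibrillarin, and nucleoli per nucleus were counted with CellProfiler. Values are plate-adjusted percent effect for the one-nucleolus and 5+ nucleoli phenotypes, normalised to siNT (0%) and to the positive controls siNOL11 or siKIF11 (100%), as the mean of biological triplicates. Percent viability is the nuclei count relative to siNT.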

[2] = tested on: MCF10A; assay: 5+ nucleoli phenotype percent effect (relative to siNT 0% and siKIF11 100%); higher = more cells with five or more nucleoli
Experimental: as §1

[3] = tested on: MCF10A; assay: one-nucleolus phenotype percent effect (relative to siNT 0% and siNOL11 100%); higher = more cells with one nucleolus (ribosome biogenesis inhibition)
Experimental: as §1

GGAUUCCUGGAAAUACUGUUCU [hsa-miR-145-3p]
percent viability [1]: 55.6% | 5+ nucleoli phenotype percent effect [2]: -19.5% | one-nucleolus phenotype percent effect [3]: 9.95%

GGCAGGAGGGCUGUGCCAGGUUG [hsa-miR-4722-5p]
percent viability [1]: 60.5% | 5+ nucleoli phenotype percent effect [2]: 13.5% | one-nucleolus phenotype percent effect [3]: -6.08%

GGCAGGUUCUCACCCUCUCUAGG [hsa-miR-657]
percent viability [1]: 44.7% | 5+ nucleoli phenotype percent effect [2]: 15.8% | one-nucleolus phenotype percent effect [3]: 4.3%

GGCCACUGAGUCAGCACCA [hsa-miR-4252]
percent viability [1]: 46.1% | 5+ nucleoli phenotype percent effect [2]: 5.41% | one-nucleolus phenotype percent effect [3]: -3.69%

GGCCUUGUUCCUGUCCCCA [hsa-miR-4312]
percent viability [1]: 22.7% | 5+ nucleoli phenotype percent effect [2]: -25.8% | one-nucleolus phenotype percent effect [3]: 56%

GGCGCGCCCAGCUCCCGGGCU [hsa-miR-4783-5p]
percent viability [1]: 90.3% | 5+ nucleoli phenotype percent effect [2]: 28% | one-nucleolus phenotype percent effect [3]: -16.4%

GGCGGAGGGAAGUAGGUCCGUUGGU [hsa-miR-658]
percent viability [1]: 63% | 5+ nucleoli phenotype percent effect [2]: 5.47% | one-nucleolus phenotype percent effect [3]: -9.25%

GGCGGCGGCGGAGGCGGGGG [hsa-miR-3960]
percent viability [1]: 47.6% | 5+ nucleoli phenotype percent effect [2]: -17.5% | one-nucleolus phenotype percent effect [3]: 26.8%

GGCGGCGGGGAGGUAGGCAG [hsa-miR-8072]
percent viability [1]: 49.8% | 5+ nucleoli phenotype percent effect [2]: -2.29% | one-nucleolus phenotype percent effect [3]: -6.87%

GGCGGGUGCGGGGGUGG [hsa-miR-3656]
percent viability [1]: 148% | 5+ nucleoli phenotype percent effect [2]: 37.2% | one-nucleolus phenotype percent effect [3]: -15.8%

GGCUACAACACAGGACCCGGGC [hsa-miR-187-5p]
percent viability [1]: 136% | 5+ nucleoli phenotype percent effect [2]: 15.6% | one-nucleolus phenotype percent effect [3]: -18.2%

GGCUAGCAACAGCGCUUACCU [hsa-miR-621]
percent viability [1]: 51.6% | 5+ nucleoli phenotype percent effect [2]: -15.8% | one-nucleolus phenotype percent effect [3]: 15.2%

GGCUCAAUCUCUGGUCCUGCAGCC [hsa-miR-7158-5p]
percent viability [1]: 132% | 5+ nucleoli phenotype percent effect [2]: 25.6% | one-nucleolus phenotype percent effect [3]: -21.5%

GGCUCAUGUGUCUGUCCUCUUC [hsa-miR-6847-3p]
percent viability [1]: 44.2% | 5+ nucleoli phenotype percent effect [2]: 1.91% | one-nucleolus phenotype percent effect [3]: -18%

GGCUCCUUGGUCUAGGGGUA [hsa-miR-4448]
percent viability [1]: 45.2% | 5+ nucleoli phenotype percent effect [2]: 20.5% | one-nucleolus phenotype percent effect [3]: -9.36%

GGCUGAGUGGGGUUCUGACUCC [hsa-miR-8077]
percent viability [1]: 31.9% | 5+ nucleoli phenotype percent effect [2]: -6.36% | one-nucleolus phenotype percent effect [3]: -3.93%

GGCUGGAGCGAGUGCAGUGGUG [hsa-miR-3135b]
percent viability [1]: 43.2% | 5+ nucleoli phenotype percent effect [2]: -9.26% | one-nucleolus phenotype percent effect [3]: 9.78%

GGCUGGUCAGAUGGGAGUG [hsa-miR-6131]
percent viability [1]: 71% | 5+ nucleoli phenotype percent effect [2]: 1.34% | one-nucleolus phenotype percent effect [3]: -3.05%

GGCUUGCAUGGGGGACUGG [hsa-miR-4327]
percent viability [1]: 40.2% | 5+ nucleoli phenotype percent effect [2]: 7.45% | one-nucleolus phenotype percent effect [3]: 12.4%

GGCUUUCUAGUCUCAGCUCUCC [hsa-miR-3160-5p]
percent viability [1]: 110% | 5+ nucleoli phenotype percent effect [2]: 38.5% | one-nucleolus phenotype percent effect [3]: -16.4%

GGGAAAAGGAAGGGGGAGGA [hsa-miR-6124]
percent viability [1]: 180% | 5+ nucleoli phenotype percent effect [2]: 53.1% | one-nucleolus phenotype percent effect [3]: -29.7%

GGGAAGAGCUGUACGGCCUUC [hsa-miR-6077]
percent viability [1]: 37.4% | 5+ nucleoli phenotype percent effect [2]: -35.5% | one-nucleolus phenotype percent effect [3]: 32.5%

GGGACCAUCCUGCCUGCUGUGG [hsa-miR-3619-3p]
percent viability [1]: 44.4% | 5+ nucleoli phenotype percent effect [2]: 20.9% | one-nucleolus phenotype percent effect [3]: -10.4%

GGGACCCAGGGAGAGACGUAAG [hsa-miR-711]
percent viability [1]: 80.1% | 5+ nucleoli phenotype percent effect [2]: 30.4% | one-nucleolus phenotype percent effect [3]: -15.3%

GGGACUAGGAUGCAGACCUCC [hsa-miR-6503-3p]
percent viability [1]: 49.8% | 5+ nucleoli phenotype percent effect [2]: -6.73% | one-nucleolus phenotype percent effect [3]: 9.94%

GGGAGAAGGGUCGGGGC [hsa-miR-4516]
percent viability [1]: 94.1% | 5+ nucleoli phenotype percent effect [2]: 31.9% | one-nucleolus phenotype percent effect [3]: -25.4%

GGGAGCCAGGAAGUAUUGAUGU [hsa-miR-505-5p]
percent viability [1]: 68.7% | 5+ nucleoli phenotype percent effect [2]: 1.85% | one-nucleolus phenotype percent effect [3]: 10.3%

GGGAGGUGUGAUCUCACACUCG [hsa-miR-3689d]
percent viability [1]: 9.66% | 5+ nucleoli phenotype percent effect [2]: 10.8% | one-nucleolus phenotype percent effect [3]: 24.8%

GGGAGUCUACAGCAGGG [hsa-miR-4294]
percent viability [1]: 37.7% | 5+ nucleoli phenotype percent effect [2]: -26.3% | one-nucleolus phenotype percent effect [3]: 24%

GGGAGUGCAGGGCAGGGUUUC [hsa-miR-504-3p]
percent viability [1]: 36% | 5+ nucleoli phenotype percent effect [2]: -22.6% | one-nucleolus phenotype percent effect [3]: 14.7%

GGGAUAUGAAGAAAAAU [hsa-miR-3201]
percent viability [1]: 59.6% | 5+ nucleoli phenotype percent effect [2]: 40.5% | one-nucleolus phenotype percent effect [3]: -15.6%

GGGAUGGUAGACCGGUGACGUGC [hsa-miR-1193]
percent viability [1]: 24.3% | 5+ nucleoli phenotype percent effect [2]: -23% | one-nucleolus phenotype percent effect [3]: 19.2%

GGGAUUCUGUAGCUUCCU [hsa-miR-4320]
percent viability [1]: 28.6% | 5+ nucleoli phenotype percent effect [2]: -18.6% | one-nucleolus phenotype percent effect [3]: 50%

GGGCCUCUCUUGUCAUCCUGCAG [hsa-miR-6744-3p]
percent viability [1]: 81.6% | 5+ nucleoli phenotype percent effect [2]: 49.2% | one-nucleolus phenotype percent effect [3]: -21.1%

GGGCGACAAAGCAAGACUCUUUCUU [hsa-miR-1273a]
percent viability [1]: 78.8% | 5+ nucleoli phenotype percent effect [2]: -17.3% | one-nucleolus phenotype percent effect [3]: 6.41%

GGGCGCCUGUGAUCCCAAC [hsa-miR-566]
percent viability [1]: 81.2% | 5+ nucleoli phenotype percent effect [2]: 39.3% | one-nucleolus phenotype percent effect [3]: -9.02%

GGGCUAGGGCCUGCUGCCCCC [hsa-miR-6069]
percent viability [1]: 54.3% | 5+ nucleoli phenotype percent effect [2]: 21.6% | one-nucleolus phenotype percent effect [3]: -4.55%

GGGCUCACAUCACCCCAU [hsa-miR-4284]
percent viability [1]: 40.5% | 5+ nucleoli phenotype percent effect [2]: 8.32% | one-nucleolus phenotype percent effect [3]: -1.42%

GGGCUGGGGCGCGGGGAGGU [hsa-miR-5787]
percent viability [1]: 150% | 5+ nucleoli phenotype percent effect [2]: 60.6% | one-nucleolus phenotype percent effect [3]: -30.8%

GGGGAAAGCGAGUAGGGACAUUU [hsa-miR-3153]
percent viability [1]: 55.6% | 5+ nucleoli phenotype percent effect [2]: 13.5% | one-nucleolus phenotype percent effect [3]: -1%

GGGGAACUGUAGAUGAAAAGGC [hsa-miR-8059]
percent viability [1]: 101% | 5+ nucleoli phenotype percent effect [2]: 34.6% | one-nucleolus phenotype percent effect [3]: -28.4%

GGGGAGCGAGGGGCGGGGC [hsa-miR-6090]
percent viability [1]: 164% | 5+ nucleoli phenotype percent effect [2]: 36.1% | one-nucleolus phenotype percent effect [3]: -21.8%

GGGGAGCUGUGGAAGCAGUA [hsa-miR-920]
percent viability [1]: 53.2% | 5+ nucleoli phenotype percent effect [2]: 23.5% | one-nucleolus phenotype percent effect [3]: -6.81%

GGGGAGGUGUGCAGGGCUGG [hsa-miR-6799-5p]
percent viability [1]: 93.2% | 5+ nucleoli phenotype percent effect [2]: 37% | one-nucleolus phenotype percent effect [3]: -29.7%

GGGGCCUGGCGGUGGGCGG [hsa-miR-2861]
percent viability [1]: 80.1% | 5+ nucleoli phenotype percent effect [2]: 87.4% | one-nucleolus phenotype percent effect [3]: -37.2%

GGGGCGCGGCCGGAUCG [hsa-miR-3178]
percent viability [1]: 93.3% | 5+ nucleoli phenotype percent effect [2]: 51.5% | one-nucleolus phenotype percent effect [3]: -32.2%

GGGGCUGGGCGCGCGCC [hsa-miR-4492]
percent viability [1]: 33.5% | 5+ nucleoli phenotype percent effect [2]: -0.324% | one-nucleolus phenotype percent effect [3]: 24.8%

GGGGCUGGGGCCGGGGCCGAGC [hsa-miR-762]
percent viability [1]: 59.8% | 5+ nucleoli phenotype percent effect [2]: 53.9% | one-nucleolus phenotype percent effect [3]: -31.4%

GGGGCUGUGAUUGACCAGCAGG [hsa-miR-4675]
percent viability [1]: 24.1% | 5+ nucleoli phenotype percent effect [2]: -11.5% | one-nucleolus phenotype percent effect [3]: 10.5%

GGGGGAAGAAAAGGUGGGG [hsa-miR-4271]
percent viability [1]: 72.2% | 5+ nucleoli phenotype percent effect [2]: 20.1% | one-nucleolus phenotype percent effect [3]: -5.03%

GGGGGCCGAUACACUGUACGAGA [hsa-miR-128-2-5p]
percent viability [1]: 91.1% | 5+ nucleoli phenotype percent effect [2]: 34.6% | one-nucleolus phenotype percent effect [3]: -25.2%

GGGGGGAUGUGCAUGCUGGUU [hsa-miR-4525]
percent viability [1]: 26.2% | 5+ nucleoli phenotype percent effect [2]: -7.81% | one-nucleolus phenotype percent effect [3]: 22.7%

GGGGGGGCAGGAGGGGCUCAGGG [hsa-miR-328-5p]
percent viability [1]: 129% | 5+ nucleoli phenotype percent effect [2]: 33.9% | one-nucleolus phenotype percent effect [3]: -28.4%

GGGGGGGGGGGGGGGGGGCCG [hsa-miR-1234-5p]
percent viability [1]: 78.1% | 5+ nucleoli phenotype percent effect [2]: 65.1% | one-nucleolus phenotype percent effect [3]: -31.5%

GGGGGGUGUGGAGCCAGGGGGC [hsa-miR-6752-5p]
percent viability [1]: 79.1% | 5+ nucleoli phenotype percent effect [2]: 41.7% | one-nucleolus phenotype percent effect [3]: -21.9%

GGGGGUCCCCGGUGCUCGGAUC [hsa-miR-615-5p]
percent viability [1]: 137% | 5+ nucleoli phenotype percent effect [2]: 33.1% | one-nucleolus phenotype percent effect [3]: -20%

GGGGUAUUGUUUCCGCUGCCAGG [hsa-miR-503-3p]
percent viability [1]: 40.1% | 5+ nucleoli phenotype percent effect [2]: -25.1% | one-nucleolus phenotype percent effect [3]: 39%

GGGGUGGUCUGUUGUUG [hsa-miR-4483]
percent viability [1]: 5.44% | 5+ nucleoli phenotype percent effect [2]: 44.6% | one-nucleolus phenotype percent effect [3]: -25.2%

GGGGUUCCUGGGGAUGGGAUUU [hsa-miR-23a-5p]
percent viability [1]: 103% | 5+ nucleoli phenotype percent effect [2]: 40.3% | one-nucleolus phenotype percent effect [3]: -14%

GGGUCCCGGGGAGGGGGG [hsa-miR-4281]
percent viability [1]: 100% | 5+ nucleoli phenotype percent effect [2]: 25.6% | one-nucleolus phenotype percent effect [3]: -17.2%
